Drawing on a protein production outcome set (Wang et al. 2014), this text covers protein production for 18 sequences.

The nature of this series: label from the status in PepcDB records.

For “MINTMTLDNGVRIITEKMSTVRSVSIGIWVGTGSRYESAEENGISHFLEHMFFKGTNTRSAQEIAEFFDSIGGQVNAFTSKEYTCYYAKVLDDHAGQAIDTLSDMFFHSTFQKEELEKERKVVFEEIKMVDDTPDDIVHDLLSSATYGKHSLGYPILGTVETLNSFNEGMLRHYMDRFYTGDYVVISVAGNVHDELIDKIKETFSQVKPTTYNYQGEKPMFLPNRIVRKKETEQAHLCLGYPGLPIGDKDVYALVLLNNVLGGSMSSRLFQDIREKRGLCYSVFSYHSSFRDSGMLTIYAGTGHDQLDDLVYSIQETTSALAEKGLTEKELENGKEQLKGSLMLSLESTNSRMSRNGKNELLLKKHRSLDEMIEQINAVQKQDVSRLAKILLSASPSISLINANGELPKALIH”, the protein production result is listed as “failed”. Regarding “MINVEQVFALDIGTRLVMGLIMEKAPGGYHIIARAQTEHRQRAMYDGQIHDIEEVAQAVQRVKEELEEKIKGKLHYVSVAAAGRALKTAVATAQKSELIPMIWEREDIFALEMEAVQQALREIQAEDEIIPYHCVGYSTIESLLEGQNLSSLSGQRGKEAQVKVIATFLPRTVIDGLTRVISKVGLEMRELTLEPIAAGRAAIPPDMRRMNLALVDVGAGTSDIALTKSGSFFAYGMVPMAGDEITERICQHFLVDFQTGEKIKRSLNTKTKVTFTDFLGMKTTVNKEEVLEQIQPVVLELAQKLADEILRLNQGNPHAIILIGGGSQTPLLAEVLSDLLELPRNRVGIQVRERIQGVSGEKSLKGPDAITPIGIGISTIEGEGLQYFSVHVNDLTVQIFELQLATVSDALLAAGITPRLLVGRPGSALTVELNGDIKVSKGQFSKPAQFFLNGEEVKLDHELKPGDKIQFIPAQDGENAQATFADLVPAIPEKKIKVNGESVVFTAQIFCNGRPVTRDGDVPDGAKITVFQNQTLKDLLHFLNDKQYSLSEIRYKINGEERVIPIHKEFYINQQKVALERMIKDGDDLVILVKEVYIKDLQLKPTPMVFYVNGQEVEYPPQIFRILSRGRVLSDQEKVVDGMELSVEGYDTMPLLSELLPYVNIPQDVPANARLSLKRNNQEAEFTTPLIPGDRIEIHWEQVASALLEHHHHHH”, the protein production entry is recorded as “not failed”.

Turning to “MINYNKTQHLIESMVFERVVPGVNYAFIKNKQIFTSTTGFASIYPEVTQLSPFAEYDLASLTKVLATENVLLKLYDQGELNFTEPLKEFIPTFKDPKVRLYHLLTHTSGIRGWIPHRDELSHDELLNALINLPVTDEFEHKMRYADTNFILLGLVIKSIFGASVQEVATKEIFDQMPLINTTFTPNKSECVPTAIINDQVLQGIPHDPKARQLGLDCGSAGLFSNMRDLITFSQGYLGLKRNVLPYSQDTVSELFDDKTPKGVKPRSWGWDIRFDPKYHYPIILHTGFTGTLIILDRLKKSGLILLTNRVHPTGHNTIFLAMREKIIRSFLNENSKI”, the protein production entry was “failed”. “MINYPNLPNSALEITEQPEVKEITNELLKQLQNALNSNSLFSEQVELSLKGIVRILEVLLSLDFFKNANEIDSSLRNSIEWLNNAGESLKTKMKEYEGFFSDFNTSMRTNEQEVSATLNANTENIKSEIKKLENQLIETTTRLLTSYQIFLNNARDSANNQITANKTESLEALNQAKTSANNEITANQTQALTNINEAKENANNQITENKTQAITNINEARESATTQITTNKQEVLNSITQEKNQATSEITEAKKSAFNELLETLKPKFSGLFAGAYYIRNVIIFKADGRRKSRI”: the protein production entry is “failed”.

On to “MIPLSPDTLLAARLLAEGDLAGALRAAQAGLQAEPGNAPLWNLLGVCAARLGQAALAEQCWRQALSLDPATPDAHYNLGCLASERDDAAAADAHYRAELARDPDHCSSLGNLGNLLQDAGRLDEAETCFRRRLAIQPGAAAHYQLGRLLAERGRNGEAEAQLRACLDETPDDVEALQLLGRLLEERGEAGEAEAMLRRALESAPGHAAAGNNLGLLLMAQRRWDEAESPLRAAHAAQPGAALPNLASLLLATGRAAEAETLARQALAAEPGRADWLNLLGLALREQGRDEEAGLAWEQGLASVPDHRRLRQNLGYLQLARGDWAAGWAHHEARLESAVYPALPSPRWQGESLAGRRLLVLFEQGYGDAIQFSRYLNPLLEQGAARVVALCREPLSPLFSRQWPQVAWLAMGSGYPAAFPPHDCHVFSMSLPWALRDFEPRAETYLQADPALRQAWRARLPPGRNIGLVWRRPAPSTRSTIAVPCRGRRLCCRCWPIPAPTGFRCSRSRPMSNANGCSNMAWRSGVPNWGISPTARRCWRNWTAWWPWTPRWRTWRARWACLAGCCWPASMWTGAGDGMAKRRRGTTRFVCSAKGAARDGARRSPGCERRNAQRSRLPGCISRSRSDGCLMLRIRK”, for which the protein production entry is given as “failed”. As for “MIPPELDMSLLLEFIGANEGTGHFKPLEKKFVRVSGEATIGHVEKFLRRKMGLDPACQVDIICGDHLLEQYQTLREIRRAIGDAAMQDGLLVLHYGLVVSP”, the entry is “not failed”; as for “MIPTHLPILQVVVPLMAAPVCILLRRPGLCWAWALLIALTTLTMAVGLLAGVLTHGPSAYHLGDWSPPWGIELHVDLLSALVLVLVTATASLVIVYARASFAAEIDPGHHTLAYCLFLLCLTGLLGMAITGDAFNLFVFLEISSLSSYALVALGRDRRALYAAYHYLILGTVGATFYVIGIGFLYMMTGTLNMNDLAQRLPAVAHSRTAVAGVVFLGVGLSLKLALFPLHKWLPAAYSYAPSAVGAFLAATSTKVAFYVMVRLFLGVLAPAFSANLLPGPVSAREMVMVLALAAILSGSFSAIFQSDAKRLLAYSSVSQIGVMVLGLSLFSLDGVAGGLVHMLNHALIKASLFMALGCVFLRIGSVEIADMAGIGRRMPWTMAAFVIGGLSLIGIPGTAGFISKWQLAQSAIAEGWWLAVAALIASSLLAVVYVGKVIEAAYFRPSPAESPSGAPSAPQEAPAMMLAPLWIAALANIGFGLNTTWTLGLAKRAASALMGLPS”, “failed”; as for “MIPTSREERLKGRRHVRTSEDRSFLVLLAAISVAFGWLLWPFSGALLWATLLAIIFAPLYRLCLETFPEWRNLAALSTVLVVVVMVLIPVAVVIASLVEQGGELYQRVQTGEISFAHPLQQLKSALPDWAASVSDRLAGIDLSALKERLSSLVVPAGQQLAGHAINIGQLTVEFVASLLVMLYLLFFFLRDGDELNLRIRDALPLRRSHTAAILDAFTLSVRGTIKGIILVALIQGALGGLIFWLLGLTAPLLAGALMALLSLLPVLGSALVWVPVGLYLLVAGAVTKGMILLVFGTFVIGLADNFLRPVLVGQSIRMPSYVVLLATLGGLATFGANGFVIGPLVAAMFLTAWHIFVGSKEQQEVRN”, “failed”. On to “MIQAVFERAEDGELRSAEITGHAESGEYGLDVVCASVSTLAINFINSIEKFAGYEPILELNEDEGGYLMVEIPKDLPSHQREMTQLFFESFFLGMANLSENYSEFVQTRVITEN”, for which the protein production entry is reported as “not failed”. As for “MIRDYKSKLEFLAFYDELTGLPNKNSLIRWLNLKVSQMDCIDTYLIFLEVRDLEKLNVTYGYDLVDELIIHISKRIKDIAGEGNKAFKIGFDRFAIICKSENISDFIERMLSQLLLPYNVNGNLIRVNFNIGAAQIENSNEAAANLMRRCDLALIKAKEEGLNEYVIFKPSIELEHHHHHH”, the entry is “failed”; as for “MIREAQRSELPALLELWLESTIWGHPFIKSSYWRDCIPLVRDAYLANAQNWVWEEDGKLLGFVSIMEGRFLAAMFVAPKAVRRGIGKALMQYVQQRHPHLMLEVYQKNQPAIDFYHAQGFHIVDCAWQDETQLPTWIMSWPVVQTL”, “failed”. As to “MIRFEIHGDNLTITDAIRNYIEEKVGKLERYFNNVPNAVAHVRVKTYSNSTTKIEVTIPLKDVTLRAEERHDDLYAGIDLITNKLERQVRKYKTRVNRKHRDRGDQDIFVAEVQESTTNNHADDIESENDIEIIRSKQFSLKPMDSEEAVLQMNLLGHDFFIFTDRETDGTSIVYRRKDGKYGLIETTELEHHHHHH”, the protein production entry is given as “not failed”. On to “MIRFEIHGENLTITDAIRNYIEEKIGKLERYFNDVPNATAHVKVKTYQNSATKIEVTIPLKKVTLRAEERNDDLYAGIDLINNKLERQVRKYKTRVNRRNRNRGEQEAFASLPEEKEAVEIQNDENEADNEIEIIRAKNFSLKPMDSEEAVLQMDLLGHDFFIFTDRETDGTSIVYKRKDGKYGLIETTELEHHHHHH”, for which the protein production entry is “failed”. As for “MIRNPKIYIIILNYNAYEDTLECVKSIGNIDYDNYELVLVDNSSTDDSYVKLKESLPSYNIIKSKENLGYANGNNIGIKYALENGADYICILNNDVVVEKDFLNKLVDKIIEKEDVGIVGSCICDYYRREIIQGMGAHINLYFAAARRYFKGKNYNEIEKKDIFVDYLEGACFLVKSEVFEKIGLIPENYFLFFEETEFCTRAINAGYKIMCIYESKVYHKGSATINKFGSLSYAYLNRNRVIFVRRNSKWYQKIIFAIYIFIEAFGRIVIRKEPLTLFKYILGGFKSNKESIDVIDVKSYVKLEHHHHHH”, the protein production result is listed as “failed”. In the case of “MIRQRSVIAKRAYIDEGVYIGNVVRIGEESMIHRRSRIGSGARIGGSVCIGVYCRIDGSVRIGQHADIGEWVNIDGHARIGNFARIGEWSRIGGRANIAAHVVLEKQSIIHSETCIQDASKLEHHHHHH”, the protein production entry is given as “failed”.

As for “MIRRALLIASLAALAGCAGLDAIQNAYQGIQDYFTGKDNAEPPAPLAEITPQVKADKLWMAEIGDGYDDQGINLGPAVDDSRVFAAERHGTVQAFNRLTGEKLWSVDHEMDLSAGPVFDDGELFLATAEGAVIVLNAADGALVWKSTLASEILSVPAVADDVVVVRGTNGHLTGLDRKSGATLWYFERHAPPLAIRSRGAPIIAGDLVIDGFGGGKVSAIQLKEGRLDWEANVSLPHGRSEIERLVDLSATPVVRNDVVFVSGYQGGTASLGLNTGEVQWKRESISSPAGMTADRRELYVTDANADLWQLAIRNGEDQWKQTELHQRRLTAPALVKDYLVVGDFEGYLHVLNKEDGRIVGRVQVTDAPIEYPPVVYGDIVYVYATDGTLAAITVD”, the protein production entry is listed as “failed”. As for “MIRTAKLALVAAALSTTALSPLALAAPAPAQPAATASIAVPPIVYQQRVLANGMKVFTSRDTSTPNVSVQVWYGVGSKDDPQGRSGFAHLFEHLMFKATRNMPNETVDRLTEDVGGFNNASTWDDFTNYYEVVPANHLERLIWAEADRLKSLVIDEAVFASERDVVKEELRQRVLADPYGRFFALSIPQQSFAVHPYQRPGIGSIEELDAATVDDVRAFHRTYYRPDNAALIIVGNFDQTKLDAMIDKYFGSLTTPAGAIPKVTAVEPARTGPKTVNTYGPNVPLPALAITWLAPAAADKDAPALAVLDAILTAGKSSRLYDSLVYDQKIAQSVFSSAPNNAQPGLFYVGAIMAGGKTVAQGEAALRAQVARVRDGLVTPAELAEAKAGLLADAVRRREEIDGRGFAIGYALQTEGDAAAANSSLAKLQAVTAADIQRVARQYLADDRRTVINYLPEKDRPAGEKDATPPIPKVASVKYDGPITTLAPEAEREKPPAVAAPVPAVMPTPAEKTLANGLRVIVAKSSELPLITSTLTVKGGASSDPAGLAGTSSLTSELLTEGTATRSATQVARETEALGANLAAGSGWEAASLTLSVTANNADPAMAIMADVAQNPAFKTEELDRVRAETLDGLSVAFQRPGSLASFATSPVLYAGSAYGHVAGGTPGSLPKIKREDLAKTHAAYWRPDNAVLVVTGNLSPEAGFALAEKAFGGWKKPATPPPAPPAAPTGYQPRNVVIDLPGTGQAAVVLAKPAITRADPSYYQGVVANTVLGVGFSSRLNQEIRIKRGLSYGAGSSLTPQGQFGGFSARVQTKNPSAGEVISLTRAELSRLANEPASVGELAARKSVLVGGFGRDLGTSEGLAGILGNLAVYGVPLTEIQSYAAKVEAVTPEQVQAFAKAKLDPTQMSVIVAGDAKAMGEALAKVAPNATVIPAAKLDLDAPGLTQ”, the entry is “failed”; as for “MIRTIQDLLNERVAIGKIVNTHGLKGEVKFFPYTNSEEIVKNLSSVVLYNSEKKAFYNLTVESVRRMNKLFLIRFKSIDTIEAAERIKGCEVFIKYEELPKLSEDEYYFYEILDCDVFYESGENVGKVVDIIETGSNDVLVVRKKKKETLIPMTKDCIVEIDKGAKKIIAKEMEWILEHHHHHH”, “failed”.
